From patent publication US20250295799A1, “ANTIBODY-DRUG CONJUGATES TARGETING GLYPICAN-3 AND METHODS OF USE” (Zymeworks BC Inc., priority 2022, published 2025)

B1: v36180 (M3-H1L1) (antibody, human IgG1, kappa, V domains shown)
VH: EVQLVQSGAEVKKPGSSVKVSCKASGYTFTDYEMHWVRQAPGQGLEWIGAIDPETGDTAYNQKFKGRATLTADKSTSTAYMELSSLRSEDTAVYYCTRYFSFAYWGQGTLVTVSS
VL: DVQMTQSPSSVSASVGDRVTITCRSSQSLRHSNGNTYLQWYQQKPGKAPKLLIYKVSNRFSGVPSRFSGSGSGTDFTLTISSLQPEDFATYFCYQSKHVPYTFGQGTKVEIKR
B2: v37575 (codrituzumab) (antibody, human IgG1, kappa, V domains shown)
VH: QVQLVQSGAEVKKPGASVKVSCKASGYTFTDYEMHWVRQAPGQGLEWMGALDPKTGDTAYSQKFKGRVTLTADKSTSTAYMELSSLTSEDTAVYYCTRFYSYTYWGQGTLVTVSS
VL: DVVMTQSPLSLPVTPGEPASISCRSSQSLVHSNRNTYLHWYLQKPGQSPQLLIYKVSNRFSGVPDRFSGSGSGTDFTLKISRVEAEDVGVYYCSQNTHVPPTFGQGTKLEIKR

Molecular target: Insulin (Sigma-Aldrich, 19278) (Homo sapiens (Human)) (UniProt P01308)
Sequence (P01308 25-54 limits assumed, chain 1 of 2): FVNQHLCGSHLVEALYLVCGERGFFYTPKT
Sequence (P01308 90-110 limits assumed, chain 2 of 2): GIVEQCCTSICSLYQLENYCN
Test: NS-ELISA, plate coated with insulin, antibody at 100 nM

Row | Binder | NS-ELISA binding score (ratio to buffer well)
1 | B1 | 1.78
2 | B2 | 0.83
